The values that follow come from publication PMC12951562 (2026).

One assay concerns the target T1, Ac-pYEEIE-NH2 (SMILES CC[C@H](C)[C@H](NC(=O)[C@H](CCC(=O)O)NC(=O)[C@H](CCC(=O)O)NC(=O)[C@H](Cc1ccc(OP(=O)(O)O)cc1)NC(C)=O)C(=O)N[C@@H](CCC(=O)O)C(N)=O).
T1 chain: Ac-[pY]EEIE-NH2
In words: competition binding assay (SH2scan, qPCR). (Quantitative PCR measures a nucleic acid by following its amplification.)

The next assay addresses T2, caffeic acid-pYEEIE.
T2 chain: {caffeic acid}-[pY]EEIE
In words: competition binding assay (SH2scan, qPCR).

Non-standard residues stand in square brackets, D forms with d. No end group written: not given here. pY = N[C@@H](Cc1ccc(OP(=O)(O)O)cc1)C(=O)O

B1: PIK3R3 C-terminal SH2 (protein)
chain: WFVEDINRVQAEDLLYGKPDGAFLIRESSKKGCYACSVVADGEVKHCVIYSTARGYGFAEPYNLYSSLKELVLHYQQTSLVQHNDSLNVRLAYPV
By Kd is commonly meant a measure of binding affinity in units of concentration. A lower Kd goes with tighter binding. In the assay with Ac-pYEEIE-NH2, B1 had a Kd of 14.9 µM.

B2: FES SH2 (protein)
chain: EQLWYHGAIPRAEVAELLVHSGDFLVRESQGKQEYVLSVLWDGLPRHFIIQSLDNLYRLEGEGFPSIPLLIDHLLSTQQPLTKKSGVVLHRAVPKD
With B2, the Kd in the assay with Ac-pYEEIE-NH2 worked out at 4.2 µM.

B3: YES SH2 (protein)
chain: AEEWYFGKMGRKDAERLLLNPGNQRGIFLVRESETTKGAYSLSIRDWDEIRGDNVKHYKIRKLDNGGYYITTRAQFDTLQKLVKHYTEHADGLCHKLTTVCPTV
As for B3, the dissociation constant Kd with Ac-pYEEIE-NH2 came out at 3.8 µM.

B4: FYN SH2 (protein)
chain: AEEWYFGKLGRKDAERQLLSFGNPRGTFLIRESETTKGAYSLSIRDWDDMKGDHVKHYKIRKLDNGGYYITTRAQFETLQQLVQHYSERAAGLCCRLVVPCHKG
Consider B4, for which the Kd with caffeic acid-pYEEIE amounted to 0.00053 µM; with Ac-pYEEIE-NH2 it was 3.3 µM.
